We go through one molecule from article PMC11074299.

The target of this assay is T1, wild-type full-length FADD (FADD^FuL) (human), Q13158.
T1 chain: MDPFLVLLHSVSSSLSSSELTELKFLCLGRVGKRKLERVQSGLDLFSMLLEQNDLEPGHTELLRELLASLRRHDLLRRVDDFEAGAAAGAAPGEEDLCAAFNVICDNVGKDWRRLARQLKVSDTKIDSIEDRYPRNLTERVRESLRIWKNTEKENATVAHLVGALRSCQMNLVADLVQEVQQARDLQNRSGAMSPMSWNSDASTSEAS
Briefly: cryo-EM structure; FA^FuL-C8^FuL_FGLG_CADA-CF complex; Complex A without cross-linking (7.5 Å) and Complex B stabilised by GraFix, glutaraldehyde (3.7 Å); Casp-8 protease domain and FADD DD not visible. The conditions noted are these: remark: other sources report otherwise.

B1: wild-type full-length FADD (FADD^FuL), Q13158 1-208 (natural protein)
chain: T1 chain
For B1, the stoichiometry N amounted to 3.
